Tested on: Reelin of primary cortical neurons (endogenous, cellular and supernatant fractions)

## MMP-9 (active; Calbiochem, PF140)
  Reelin processing in primary neurons, Western blot: application of MMP-9 to primary neurons led to a specific accumulation of the 180 kDa fragment in cells and MMP-9 inhibition for 24 hours led to a dramatic increase in full-length cellular Reelin and decrease in cellular 180 kDa Reelin

Reference: US20180236028
